# Laboratory results as given in publication PMC8575500.
# Biological target: C12-AcpP (Escherichia coli acyl carrier protein AcpP, wt, carrying a C12 acyl chain) (Escherichia coli) (UniProt P0A6A8)
# UniProt P0A6A8, sequence (P0A6A8 whole entry): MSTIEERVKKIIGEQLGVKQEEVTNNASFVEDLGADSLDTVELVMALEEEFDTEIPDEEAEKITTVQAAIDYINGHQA
row,Substance,"completion of the reaction after 10 min, from the remaining C12-AcpP by HPLC"
1,Escherichia coli FabF K65A/R68A/K69A (enzyme),15%
2,Escherichia coli FabF R127A/K128A/R206A (enzyme),13%

# Continued, values first:
row,"completion of the reaction after 10 min, from the remaining C12-AcpP by HPLC",Substance
1,65%,Escherichia coli FabF K65A/K69A (enzyme)
2,44%,Escherichia coli FabF K65A/R127A/K128A (enzyme)
3,39%,Escherichia coli FabF R206A (enzyme)
